In paper PMC8131606:

Assays:
[1] = target: F3 (F220C, F221A, F228A) opsin (bovine) (UniProt P02699)
[2] = target: WT opsin (thermostable bovine opsin with C-terminal 3X-FLAG tag) (bovine) (UniProt P02699)
[3] = target: F2 (F221A, F228A) opsin (bovine) (UniProt P02699)
[4] = target: F1 (F228A) opsin (bovine) (UniProt P02699)

## F3 (F220C, F221A, F228A) opsin (from UniProt P02699 1-348) (receptor)
[1]
  ratio of mono-exponential fit constants αF3/αWT from scramblase-based analysis of reconstitution into vesicles: 0.4

## WT opsin (thermostable bovine opsin with C-terminal 3X-FLAG tag) (from UniProt P02699 1-348) (receptor)
[2]
  mono-exponential fit constant (α) of p(≥ 1) scramblase versus PPR* after reconstitution of purified opsin into vesicles: 0.25

## F2 (F221A, F228A) opsin (from UniProt P02699 1-348) (receptor)
[3]
  ratio of mono-exponential fit constants α(construct)/αWT from scramblase-based analysis of reconstitution into vesicles: 1

## F1 (F228A) opsin (from UniProt P02699 1-348) (receptor)
[4]
  ratio of mono-exponential fit constants α(construct)/αWT from scramblase-based analysis of reconstitution into vesicles: 1
